Reference: patent US20250154283A1 (published 2025)
Changes are numbered by the printed parent chain.

B1: ADAM Metallopeptidase With Thrombospondin Type 1 Motif 13 (ADAMTS13) (protein)
chain: AAGGILHLELLVAVGPDVFQAHQEDTERYVLTNLNIGAELLRDPSLGAQFRVHLVKMVILTEPEGAPNITANLTSSLLSVCGWSQTINPEDDTDPGHADLVLYITRFDLELPDGNRQVRGVTQLGGACSPTWSCLITEDTGFDLGVTIAHEIGHSFGLEHDGAPGSGCGPSGHVMASDGAAPRAGLAWSPCSRRQLLSLLSAGRARCVWDPPRPQPGSAGHPPDAQPGLYYSANEQCRVAFGPKAVACTFAREHLDMCQALSCHTDPLDQSSCSRLLVPLLDGTECGVEKWCSKGRCRSLVELTPIAAVHGRWSSWGPRSPCSRSCGGGVVTRRRQCNNPRPAFGGRACVGADLQAEMCNTQACEKTQLEFMSQQCARTDGQPLRSSPGGASFYHWGAAVPHSQGDALCRHMCRAIGESFIMKRGDSFLDGTRCMPSGPREDGTLSLCVSGSCRTFGCDGRMDSQQVWDRCQVCGGDNSTCSPRKGSFTAGRAREYVTFLTVTPNLTSVYIANHRPLFTHLAVRIGGRYVVAGKMSISPNTTYPSLLEDGRVEYRVALTEDRLPRLEEIRIWGPLQEDADIQVYRRYGEEYGNLTRPDITFTYFQPKPRQAWVWAAVRGPCSVSCGAGLRWVNYSCLDQARKELVETVQCQGSQQPPAWPEACVLEPCPPYWAVGDFGPCSASCGGGLRERPVRCVEAQGSLLKTLPPARCRAGAQQPAVALETCNPQPCPARWEVSEPSSCTSAGGAGLALENETCVPGADGLEAPVTEGPGSVDEKLPAPEPCVGMSCPPGWGHLDATSAGEKAPSPWGSIRTGAQAAHVWTPAAGSCSVSCGRGLMELRFLCMDSALRVPVQEELCGLASKPGSRREVCQAVPCPARWQYKLAACSVSCGRGVVRRILYCARAHGEDDGEEILLDTQCQGLPRPEPQEACSLEPCPPRWKVMSLGPCSASCGLGTARRSVACVQLDQGQDVEVDEAACAALVRPEASVPCLIADCTYRWHVGTWMECSVSCGDGIQRRRDTCLGPQAQAPVPADFCQHLPKPVTVRGCWAGPCVGQGTPSLVPHEEAAAPGRTTATPAGASLEWSQARGLLFSPAPQPRRLLPGPQENSVQSSACGRQHLEPTGTIDMRGPGQADCAVAIGRPLGEVVTLRVLESSLNCSAGDMLLLWGRLTWRKMCRKLLDMTFSSKTNTLVVRQRCGRPGGGVLLRYGSQLAPETFYRECDMQLFGPWGEIVSPSLSPATSNAGGCRLFINVAPHARIAIHALATNMGAGTEGANASYILIRDTHSLRTTAFHGQQVLYWESESSQAEMEFSEGFLKAQASLRGQYWTLQSWVPEMQDPQSWKGKEGT
B2: 17561_Lib6_scFv (scFv, not shown: small tags and cut ends)
scFv: EVQLVQSGAEVKKPGASVKVSCKASGYTFTDLPISWVRQAPGQGLEWMGWINPYTGDTNYAQKLQGRGTMTTDPSTSTAYMELRSLRSDDTAVYYCARDGVILGYYYYYGMDVWGQGTTVTVSSSGGSTITSYNVYYTKLSSSGTESALTQPASVSGSPGQSITISCTGTDLGSKSVSWYQQHPGKAPKLMIYDNFNRPSGVSNRFSGSKSGNTASLTISGLQAEDEADYYCSSRTVSGTYVFGGGTKLTVL
B3: Lib1_P1_A9_scFv (scFv, not shown: small tags and cut ends)
scFv: QVQLVQSGAEVKKPGASVKVSCKVSGDTLSSYGIHWVRQAPGKGLEWMGGSIPSFGTAIYAQKFQGRVTMTEDTSTDTAYMELSSLKSEDTAVYYCTSEGPWLPFFSFDYWGQGTLVTVSSSGGSTITSYNVYYTKLSSSGTDIQMTQSPSSVSASVGDRVTITCRASQGISRNLAWYQQKPGKAPKLLIYKASSLASGVPSRFSGSGSGTDFTLTISSLQPEDFANYYCQQSFSTPVTFGGGTKVEIK
notes: soluble scFv, VH-linker-VL, expressed in S. cerevisiae (applies to all 63 scFvs)
B4: Lib1_P1_A9 OA (antibody, human IgG4 S228P, kappa, F234A L235A)
heavy: QVQLVQSGAEVKKPGASVKVSCKVSGDTLSSYGIHWVRQAPGKGLEWMGGSIPSFGTAIYAQKFQGRVTMTEDTSTDTAYMELSSLKSEDTAVYYCTSEGPWLPFFSFDYWGQGTLVTVSSASTKGPSVFPLAPCSRSTSESTAALGCLVKDYFPEPVTVSWNSGALTSGVHTFPAVLQSSGLYSLSSVVTVPSSSLGTKTYTCNVDHKPSNTKVDKRVESKYGPPCPPCPAPEAAGGPSVFLFPPKPKDTLMISRTPEVTCVVVDVSQEDPEVQFNWYVDGVEVHNAKTKPREEQFNSTYRVVSVLTVLHQDWLNGKEYKCKVSNKGLPSSIEKTISKAKGQPREPQVYTLPPSQEEMTKNQVSLSCAVKGFYPSDIAVEWESNGQPENNYKTTPPVLDSDGSFFLVSRLTVDKSRWQEGNVFSCSVMHEALHNHYTQKSLSLSLG
chain: ESKYGPPCPPCPAPEAAGGPSVFLFPPKPKDTLMISRTPEVTCVVVDVSQEDPEVQFNWYVDGVEVHNAKTKPREEQFNSTYRVVSVLTVLHQDWLNGKEYKCKVSNKGLPSSIEKTISKAKGQPREPQVYTLPPSQEEMTKNQVSLWCLVKGFYPSDIAVEWESNGQPENNYKTTPPVLDSDGSFFLYSRLTVDKSRWQEGNVFSCSVMHEALHNHYTQKSLSLSLG
light: DIQMTQSPSSVSASVGDRVTITCRASQGISRNLAWYQQKPGKAPKLLIYKASSLASGVPSRFSGSGSGTDFTLTISSLQPEDFANYYCQQSFSTPVTFGGGTKVEIKRTVAAPSVFIFPPSDEQLKSGTASVVCLLNNFYPREAKVQWKVDNALQSGNSQESVTEQDSKDSTYSLSSTLTLSKADYEKHKVYACEVTHQGLSSPVTKSFNRGEC
notes: also called monovalent (one-arm) Lib1_P1_A9
B5: Lib1_P1_A6 OA (antibody, human IgG4 S228P, kappa, F234A L235A)
heavy: QVQLVQSGAEVKKPGASVKVSCKVSGSTFSNYAIHWVRQAPGKGLEWMGGIVPLSGTAIYAQKFQGRVTMTEDTSTDTAYMELSSLKSEDTAVYYCARDQGESSGWYAIYYGMDVWGQGTTVTVSSASTKGPSVFPLAPCSRSTSESTAALGCLVKDYFPEPVTVSWNSGALTSGVHTFPAVLQSSGLYSLSSVVTVPSSSLGTKTYTCNVDHKPSNTKVDKRVESKYGPPCPPCPAPEAAGGPSVFLFPPKPKDTLMISRTPEVTCVVVDVSQEDPEVQFNWYVDGVEVHNAKTKPREEQFNSTYRVVSVLTVLHQDWLNGKEYKCKVSNKGLPSSIEKTISKAKGQPREPQVYTLPPSQEEMTKNQVSLSCAVKGFYPSDIAVEWESNGQPENNYKTTPPVLDSDGSFFLVSRLTVDKSRWQEGNVFSCSVMHEALHNHYTQKSLSLSLG
chain: B4 chain
light: DIQMTQSPSSVSASVGDRVTITCRASQGIGTWLAWYQQKPGKAPKLLIYGSSSRASGVPSRFSGSGSGTDFTLTISSLQPEDFANYYCQQSYGKPTFGGGTKVEIKRTVAAPSVFIFPPSDEQLKSGTASVVCLLNNFYPREAKVQWKVDNALQSGNSQESVTEQDSKDSTYSLSSTLTLSKADYEKHKVYACEVTHQGLSSPVTKSFNRGEC
notes: also called monovalent (one-arm) Lib1_P1_A6

Tests used:
[1] = target: human plasma-derived von Willebrand Factor (VWF)
[2] = target: T1, biotinylated human VWF cysteine knot (CK) domain construct (human, biotin on the in vitro biotinylation tag (residue not stated); one N-glycan); experiment: SPR, scFv captured on anti-SV5, pH 7.4; apparent Kd
T1 construct: Disulfide-linked homodimer; also called biotinylated human VWF CK domain; human VWF CK domain construct
T1 chain: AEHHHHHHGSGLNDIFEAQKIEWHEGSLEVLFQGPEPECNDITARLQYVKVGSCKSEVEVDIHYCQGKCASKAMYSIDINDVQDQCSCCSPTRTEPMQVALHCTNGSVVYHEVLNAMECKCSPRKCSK

[3] = target: T2, His-StrepTagII-HRV3C-human VWF-CK-HA-tag (human); experiment: solution-phase equilibrium binding, free antibody by ELISA; apparent Kd; pH 5.5; mean ± SD, n=2
T2 construct: it begins with the VWF signal peptide, whose limits were marked only by underlining that is lost in the text, so it was not cut off; The CK domain forms disulfide-linked homodimers (CK dimer); also called recombinant human CK domain; Human CK
T2 chain: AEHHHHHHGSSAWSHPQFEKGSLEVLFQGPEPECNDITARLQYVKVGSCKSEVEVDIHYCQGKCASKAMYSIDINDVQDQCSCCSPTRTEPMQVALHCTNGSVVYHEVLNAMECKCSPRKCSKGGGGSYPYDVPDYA
Method: (§1) Following incubation for 30 min at room temperature to establish equilibrium, unbound antibody was quantified by ELISA using the immobilized human CK domain for capture and HRP-conjugated goat anti-human IgG Fc antibody for detection.
(§2) Following a single wash of the plate with 200 μL of wash buffer (TBS containing 0.05% (v/v) Tween-20 and 5 mM CaCl₂), the plate was blocked by incubation with 200 μL blocking buffer (TBS containing 5 mM CaCl₂ and 1% (w/w) BSA) for 1 hour at room temperature. […] Incubation lasted 3 min and was followed by 5-min incubation with 100 μL HRP-conjugated goat anti-human IgG Fc antibody for detection (1 mg/mL stock diluted 1:20,000 in blocking buffer). Before and after addition of a detection antibody, the plate was washed 5 times with 200 μL wash buffer. A chromogenic horseradish peroxidase (HRP) substrate (100 μL) was then added and following color development for 3 min, 100 μL ELISA stop solution were added to quench the reaction. Absorbance was measured at 450 nm with subtraction of the absorbance at 620 nm.
(§3) The standard curve prepared with free antibody was fitted to a Sigmoidal four-parameter logistic (4PL) model.

[4] = target: T3, His-StrepTagII-HRV3C-cyno VWF-CK-HA-tag (cynomolgus monkey); experiment: as above
T3 construct: it begins with the VWF signal peptide, whose limits were marked only by underlining that is lost in the text, so it was not cut off; The CK domain forms disulfide-linked homodimers; also called recombinant cyno CK domain; Cyno CK
T3 chain: T2 chain with N35S, A95P, E113Q, K115E
Method: as §1, §2, §3

human plasma-derived VWF = target: T4, human plasma-derived VWF (human, UniProt P04275 764-2813); experiment: solution-phase equilibrium binding, free antibody by ELISA; apparent Kd; pH 7.4; mean ± SD, n=2
T4 construct: multimeric; also called pd-VWF; Human VWF
Method: as §1, §2, §3

[5] = target: T2, His-StrepTagII-HRV3C-human VWF-CK-HA-tag; experiment: as above
Method: as §1, §2, §3

[6] = target: T3, His-StrepTagII-HRV3C-cyno VWF-CK-HA-tag; experiment: as above
Method: as §1, §2, §3

VWF in human plasma [7] = target: T5, VWF in human plasma (human, UniProt P04275 764-2813); experiment: VWF:FVIIIB enzyme immunoassay; human plasma (5 donors) 17 h 37 °C with 200 nM antibody; FVIII bound to captured VWF relative to untreated plasma; ligand FVIII
T5 construct: Endogenous VWF in donor plasma, not purified; multimeric; also called VWF in plasma; VWF in platelet rich plasma

VWF in human plasma [8] = target: T5, VWF in human plasma; experiment: VWF:FVIIIB enzyme immunoassay; human plasma (5 donors) 17 h 37 °C with 600 nM antibody; FVIII bound to captured VWF relative to untreated plasma; ligand FVIII
VWF in human plasma [9] = target: T5, VWF in human plasma; experiment: collagen type III binding ELISA; human plasma (5 donors) 17 h 37 °C with 600 nM antibody; VWF bound to collagen relative to untreated plasma; ligand collagen type III
Method: Following incubation, collagen binding was determined relative to untreated plasma.

VWF in human plasma [10] = target: T5, VWF in human plasma; experiment: flow cytometry, FITC anti-VWF on platelets; human PRP (2 donors), 0.5 mg/ml ristocetin, 600 nM antibody; relative to the same plasma without antibody; receptor platelet gp1b
Method: PRP was prepared by centrifuging the blood at 250 g for 15 min. […] Sample analysis was performed on a flow cytometer. Using forward (FSC) and sideward (SSC) scatter pattern, a gate was placed on the platelets.

Binder	VWF multimer distribution (LMW/IMW/HMW) after ristocetin, in the presence of 600 nM Lib1_P1_A6 OA [1]	VWF multimer distribution (LMW/IMW/HMW) after ristocetin, in the presence of 600 nM Lib1_P1_A9 OA [1]	Kd [2] [nM]	Kd [3] [nM]	Kd [4] [nM]	Kd (human plasma-derived VWF) [nM]	Kd [5] [nM]	Kd [6] [nM]	VWF:FVIII level (% of control) (VWF in human plasma [7])	VWF:FVIII level (% of control) (VWF in human plasma [8])	Collagen binding (% control) (VWF in human plasma [9])	Platelet binding (% control) (VWF in human plasma [10])
B1	The same shift in VWF multimer pattern was observed when plasma was treated with ristocetin in the presence of 600 nM antibody including Lib1_P1_A9 and Lib1_P1_A6	The same shift in VWF multimer pattern was observed when plasma was treated with ristocetin in the presence of 600 nM antibody including Lib1_P1_A9 and Lib1_P1_A6	–	–	–	–	–	–	–	–	–	–
B2	–	–	10	–	–	–	–	–	–	–	–	–
B3	–	–	0.05	–	–	–	–	–	–	–	–	–
B4	–	–	–	17.9	26.4	5.7	5.3	10.2	91.1 % of control	93.9 % of control	106	89.7
B5	–	–	–	8.2	13	2.7	2.7	3.4	89.7 % of control	88.6 % of control	103	69.2
